Consider 2 molecules from PMC2668188, “In Vitro Recombination Catalyzed by Bacterial Class 1 Integron Integrase IntI1 Involves Cooperative Binding and Specific Oligomeric Intermediates”.

In data set [1] the target is T1, IntI1(His)6 integron integrase (Pseudomonas aeruginosa Pa695 (class 1 …, UniProt Q7BP41 1-337)).
T1 sequence: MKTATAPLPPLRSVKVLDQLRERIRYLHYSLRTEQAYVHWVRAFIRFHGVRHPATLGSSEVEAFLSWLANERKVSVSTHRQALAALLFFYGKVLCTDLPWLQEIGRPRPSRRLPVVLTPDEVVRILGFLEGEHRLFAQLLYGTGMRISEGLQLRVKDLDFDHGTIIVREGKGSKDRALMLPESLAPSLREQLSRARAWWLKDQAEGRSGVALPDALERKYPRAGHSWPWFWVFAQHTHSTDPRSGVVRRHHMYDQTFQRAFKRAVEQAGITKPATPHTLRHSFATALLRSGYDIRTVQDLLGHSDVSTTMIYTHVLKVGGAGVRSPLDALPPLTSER
Put plainly: EMSA; EMSA: 0.1 pmol DNA, 1-15 pmol IntI1 in 20 µl, 20 min at 4°C, 1% agarose at 4°C; filter binding wash: HEPES 20 mM pH 7.5, MnCl2 10 mM, NaCl 30 mM (binding buffer itself not given). Particulars: protein: recombinant; tags: His6; chain copies: 2; label: 5' 32P; blunt.

The target in data set [2] is T1, IntI1(His)6 integron integrase. In words: EMSA; filter binding; preincubated with dsattI1 (0.1 pmol); binding strongly increased, almost to bsattC level; EMSA: 0.1 pmol DNA, 1-15 pmol IntI1 in 20 µl, 20 min at 4°C, 1% agarose at 4°C; filter binding wash: HEPES 20 mM pH 7.5, MnCl2 10 mM, NaCl 30 mM (binding buffer itself not given). Particulars: protein: recombinant; tags: His6; chain copies: 2; label: 5' 32P; blunt. Background: In EMSA bound probe runs differently from free probe, usually more slowly.

B1: dsattI1 (dsDNA)
DNA 1: ACGCCGTGGGTCGATGTTTGATGTTATGGAGCAGCAACGATGTTACGCAGCAGGGCAGTCGCCCTAAAACAAAGTTAGGTGGCTCAATGAGCATCATTGC
DNA 2: GCAATGATGCTCATTGAGCCACCTAACTTTGTTTTAGGGCGACTGCCCTGCTGCGTAACATCGTTGCTGCTCCATAACATCAAACATCGACCCACGGCGT
On to B1, for which, in data set [1], the binding result is “binds”.

B2: dsattC (dsDNA)
DNA 1: CGCCCGTCTAACAATTCGTTCAAGCCGACGTTGCTTCGTGGCGGCGCTTGCGTGCTACGCTAAGCTTCGCACGCCGCTTGCCACTGCGCACCGCGGCTTAACTCAGGCGTTAGATGCACT
DNA 2: AGTGCATCTAACGCCTGAGTTAAGCCGCGGTGCGCAGTGGCAAGCGGCGTGCGAAGCTTAGCGTAGCACGCAAGCGCCGCCACGAAGCAACGTCGGCTTGAACGAATTGTTAGACGGGCG
Consider B2, for which the binding result in data set [2] is listed as “binds”.
